Tests used:
Human CCR7 [1] = molecular target: T1, Human CCR7 (human, UniProt P32248 25-378); assay: cell-based or functional assay
T1 sequence: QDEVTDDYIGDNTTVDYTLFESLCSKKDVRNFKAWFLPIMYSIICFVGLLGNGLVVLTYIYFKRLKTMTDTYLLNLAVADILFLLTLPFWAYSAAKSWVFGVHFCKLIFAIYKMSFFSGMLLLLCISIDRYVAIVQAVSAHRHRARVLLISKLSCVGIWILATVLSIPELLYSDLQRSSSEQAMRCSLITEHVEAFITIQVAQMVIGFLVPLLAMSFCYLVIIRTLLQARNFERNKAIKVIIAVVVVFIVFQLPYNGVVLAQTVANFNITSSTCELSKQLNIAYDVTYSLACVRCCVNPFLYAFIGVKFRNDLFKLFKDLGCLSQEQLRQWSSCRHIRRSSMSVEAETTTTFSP

Human CCR7 [2] = molecular target: T1, Human CCR7; assay: FACS binding assay
Human CCR7 [3] = molecular target: T1, Human CCR7; assay: cell-based or functional assay; remark: listed apart in the source
Human CCR7 [4] = molecular target: T1, Human CCR7; assay: cell-based or functional assay; remark: listed apart in the source

B1: 121G12 non-humanized CysMab (antibody, human IgG1, kappa, V domains shown)
VH: EVQLVESGGGLVKPGGSLKLSCAASGFTFSTYAMSWVRQTPEKRLEWVATISDGGSYSYYPDNVKGRFTISRDNAKNNLYLQMSHLKSEDTAMYYCARRGSRYEEYYVMDYWGQGTSVTVSS
VL: DIVLTQSPATLSVTPGDSVSLSCRASQSISNNLHWYQQKSHESPKLLIKYASQSISGIPSRFSGSGSGTDFTLSINSVETEDFGMYFCQQSNSWLTFGAGTKLGLKR
ADCC activity; IC50 (nM); surrogate ADCC reporter assay, JVM2 target cells and Jurkat-V158 effector cells (Human CCR7 [1]): 0.077 nM

B2: 121G12.CysMab.AURIX1 (antibody, human IgG1, kappa, V domains shown)
VH: EVQLVESGGGLVKPGGSLKLSCAASGFTFSTYAMSWVRQTPEKRLEWVATISDGGSYSYYPDNVKGRFTISRDNAKNNLYLQMSHLKSEDTAMYYCARRGSRYEEYYVMDYWGQGTSVTVSS
VL: DIVLTQSPATLSVTPGDSVSLSCRASQSISNNLHWYQQKSHESPKLLIKYASQSISGIPSRFSGSGSGTDFTLSINSVETEDFGMYFCQQSNSWLTFGAGTKLGLKR
modifications: AURIX1 on the engineered cysteines; DAR 3.80
notes: also called 121G12.AURIX1; 121G12 parental.Cys-Mab.wild type Fc.hIgG1.AURIX1
geometric mean fluorescence intensity, difference from the unconjugated antibody (Human CCR7 [2]): ≤ 20%

B3: 121G12.CysMab.DAPA.MPET.DM4 (antibody, human IgG1, kappa)
heavy: EVQLVESGGGLVKPGGSLRLSCAASGFTFSTYAMSWVRQAPGKGLEWVATISDAGSYSYYPDNVKGRFTISRDNAKNSLYLQMNSLRAEDTAVYYCARRGSRYEEYYVMDYWGQGTTVTVSSASTKGPSVFPLAPSSKSTSGGTAALGCLVKDYFPCPVTVSWNSGALTSGVHTFPAVLQSSGLYSLSSVVTVPSSSLGTQTYICNVNHKPSNTKVDKRVEPKSCDKTHTCPPCPAPELLGGPSVFLFPPKPKDTLMISRTPEVTCVVVAVSHEDPEVKFNWYVDGVEVHNAKTKPREEQYNSTYRVVSVLTVLHQDWLNGKEYKCKVSNKALAAPIEKTISKAKGQPREPQVYTLPPSREEMTKNQVSLTCLVKGFYPCDIAVEWESNGQPENNYKTTPPVLDSDGSFFLYSKLTVDKSRWQQGNVFSCSVMHEALHNHYTQKSLSLSPGK
light: EIVLTQSPATLSVSPGERVTLSCRASQSISNNLHWYQQKPGQAPRLLIKYASQSISGIPARFSGSGSGTDFTLTISSVEPEDFGVYFCQQSSSWLTFGQGTKLEIKRTVAAPSVFIFPPSDEQLKSGTASVVCLLNNFYPREAKVQWKVDNALQSGNSQESVTEQDSKDSTYSLSSTLTLSKADYEKHKVYACEVTHQGLSSPVTKSFNRGEC
modifications: MPET.DM4 linker-drug on the engineered cysteines (E152C, S375C, EU numbering); DAR 3.79
notes: also called 121G12.CysMab.DAPA.MPET.DM4 (DAR 3.8); MPET.DM4 ADC
geometric mean fluorescence intensity, difference from the unconjugated antibody (Human CCR7 [2]): ≤ 20%
In vitro cytotoxic activity, IC50 (nM); DEL cells (relative receptor density 67%) (Human CCR7 [3]): 2.28 nM
In vitro cytotoxic activity, IC50 (nM); JVM2 cells (relative receptor density 79%) (Human CCR7 [3]): 4.62 nM
In vitro cytotoxic activity, IC50 (nM); KE97 cells (relative receptor density 100%) (Human CCR7 [3]): 2.24 nM
In vitro cytotoxic activity, IC50 (nM); L540 cells (relative receptor density 175%) (Human CCR7 [3]): 4.9 nM
In vitro cytotoxic activity, IC50 (nM); MOTN1 cells (relative receptor density 67%) (Human CCR7 [3]): 4.24 nM
In vitro cytotoxic activity, IC50 (nM); Mec-2 cells (relative receptor density 15%) (Human CCR7 [3]): > 20 nM
In vitro cytotoxic activity, IC50 (nM); OCI-Ly3 cells (relative receptor density 43%) (Human CCR7 [3]): 6.42 nM
In vitro cytotoxic activity, IC50 (nM); PEER cells (relative receptor density 2%) (Human CCR7 [3]): > 20 nM
In vitro cytotoxic activity, IC50 (nM); SUPHD1 cells (relative receptor density 310%) (Human CCR7 [3]): 1.69 nM

B4: 121G12.DAPA.sSPDB.DM4 (antibody, human IgG1, kappa)
heavy: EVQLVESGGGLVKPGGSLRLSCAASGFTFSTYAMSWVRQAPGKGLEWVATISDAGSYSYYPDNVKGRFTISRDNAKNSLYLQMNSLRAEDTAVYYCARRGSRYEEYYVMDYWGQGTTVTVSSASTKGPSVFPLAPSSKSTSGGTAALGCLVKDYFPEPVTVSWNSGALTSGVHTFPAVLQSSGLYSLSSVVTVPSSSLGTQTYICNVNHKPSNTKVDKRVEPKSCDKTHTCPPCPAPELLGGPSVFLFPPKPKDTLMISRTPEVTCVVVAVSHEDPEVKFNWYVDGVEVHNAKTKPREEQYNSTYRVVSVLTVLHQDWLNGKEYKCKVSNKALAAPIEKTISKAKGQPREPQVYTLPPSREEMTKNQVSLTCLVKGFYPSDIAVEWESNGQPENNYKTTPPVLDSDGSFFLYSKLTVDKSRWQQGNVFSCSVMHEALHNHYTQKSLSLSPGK
light: EIVLTQSPATLSVSPGERVTLSCRASQSISNNLHWYQQKPGQAPRLLIKYASQSISGIPARFSGSGSGTDFTLTISSVEPEDFGVYFCQQSSSWLTFGQGTKLEIKRTVAAPSVFIFPPSDEQLKSGTASVVCLLNNFYPREAKVQWKVDNALQSGNSQESVTEQDSKDSTYSLSSTLTLSKADYEKHKVYACEVTHQGLSSPVTKSFNRGEC
modifications: sulfo-SPDB-DM4 on endogenous lysines, sites not defined; sulfo-SPDB-DM4 on endogenous lysines, sites not defined (DAR 3.6 as prepared; labelled DAR3.9 in the assays)
notes: also called 121G12.DAPA.sSPDB.DM4 (DAR3.9); sSPDB.DM4 ADC
geometric mean fluorescence intensity, difference from the unconjugated antibody (Human CCR7 [2]): ≤ 20%

B5: 506E15 (Humanized CysMab DAPA) (antibody, human IgG1, kappa, V domains shown)
VH: EVQLVESGGGLVKPGGSLRLSCAASGFTFSSYAMSWIRQAPGKGLEWVATISSGGSFTYYPDSVKGRFTISRDNAKNSLYLQMNSLRAEDTAVYYCARRASTVVGTDFDVWGQGTTVTVSS
VL: DIQMTQSPSSLSASVGDRVTLTCRASQDIGSSLNWLQQKPGKAIKRLIYATSSLDSGVPSRFSGSRSGTDYTLTISSLQPEDFVVYYCLQYASSPPTFGGGTKLEIKR
pHrodo (6 h MFI), uptake of pHrodo-labelled antibody at 5 ug/ml, CD4+ T cells (2000 receptors) (Human CCR7 [4]): 429 MFI
pHrodo (6 h MFI), uptake of pHrodo-labelled antibody at 5 ug/ml, CMLT1 cells (19583 receptors) (Human CCR7 [4]): 465 MFI
pHrodo (6 h MFI), uptake of pHrodo-labelled antibody at 5 ug/ml, DEL cells (110685 receptors) (Human CCR7 [4]): 3060 MFI
pHrodo (6 h MFI), uptake of pHrodo-labelled antibody at 5 ug/ml, JVM3 cells (8717 receptors) (Human CCR7 [4]): 238 MFI
pHrodo (6 h MFI), uptake of pHrodo-labelled antibody at 5 ug/ml, Jeko-1 cells (28852 receptors) (Human CCR7 [4]): 908 MFI
pHrodo (6 h MFI), uptake of pHrodo-labelled antibody at 5 ug/ml, KE97 cells (152093 receptors) (Human CCR7 [4]): 2720 MFI
pHrodo (6 h MFI), uptake of pHrodo-labelled antibody at 5 ug/ml, L540 cells (167549 receptors) (Human CCR7 [4]): 16100 MFI
pHrodo (6 h MFI), uptake of pHrodo-labelled antibody at 5 ug/ml, L1236 cells (61602 receptors) (Human CCR7 [4]): 3130 MFI
pHrodo (6 h MFI), uptake of pHrodo-labelled antibody at 5 ug/ml, MJ cells (111121 receptors) (Human CCR7 [4]): 3870 MFI
pHrodo (6 h MFI), uptake of pHrodo-labelled antibody at 5 ug/ml, MOTN1 cells (84200 receptors) (Human CCR7 [4]): 2900 MFI
pHrodo (6 h MFI), uptake of pHrodo-labelled antibody at 5 ug/ml, Mec2 cells (50840 receptors) (Human CCR7 [4]): 3090 MFI

B6: 506E15 humanized CysMab (Fc Wild Type) (antibody, human IgG1, V domains shown)
VH: EVQLVESGGGLVKPGGSLRLSCAASGFTFSSYAMSWIRQAPGKGLEWVATISSGGSFTYYPDSVKGRFTISRDNAKNSLYLQMNSLRAEDTAVYYCARRASTVVGTDFDVWGQGTTVTVSS
VL: DIQMTQSPSSLSASVGDRVTLTCRASQDIGSSLNWLQQKPGKAIKRLIYATSSLDSGVPSRFSGSRSGTDYTLTISSLQPEDFVVYYCLQYASSPPTFGGGTKLEIK
ADCC activity; IC50 (nM); surrogate ADCC reporter assay, JVM2 target cells and Jurkat-V158 effector cells (Human CCR7 [1]): 0.054 nM

B7: 506E15.CysMab.DAPA.AURIX2 (antibody, human IgG1, kappa, V domains shown)
VH: EVQLVESGGGLVKPGGSLRLSCAASGFTFSSYAMSWIRQAPGKGLEWVATISSGGSFTYYPDSVKGRFTISRDNAKNSLYLQMNSLRAEDTAVYYCARRASTVVGTDFDVWGQGTTVTVSS
VL: DIQMTQSPSSLSASVGDRVTLTCRASQDIGSSLNWLQQKPGKAIKRLIYATSSLDSGVPSRFSGSRSGTDYTLTISSLQPEDFVVYYCLQYASSPPTFGGGTKLEIKR
modifications: AURIX2 on the engineered cysteines; DAR 3.80
notes: also called 506E15.DAPA.AURIX2
geometric mean fluorescence intensity, difference from the unconjugated antibody (Human CCR7 [2]): ≤ 20%

Source: patent publication US20240092918A1 (Novartis, published 2024)
